test: soluble on expression in E. coli; label from the status in PepcDB or PDB records

Sequence	soluble on expression in E. coli
MIFKKEPKRYTVEDTIPYLRLLKSGICQLDEKHFSKSIAFQDINYQLALDEDRDLIFNQFANFLNSFDPSISIEFSYVNQLGRNEEMKSAIQIPDKKDGFDDIRFEFREMLKSQIVKGNNGLKKSKYVTFTVEADNLEQATSKLERLEIDILSNLKSMGVRAESLNGEERLKILHDVLNPNKTFEFSYKDLKKRESTKTYIVPDEFNFTPSRYFKFGKFIGATSHFQILASELSDRMLSEFLDIDDNINISFHIRAIDQSEAIKMVKRKNTDIDKMKIEENKKAVRSGYDMDILPSDLITYGEDVKSLLKDLQTRDERMFVVSIVFMNFARTVQKLDNTIAQISSIANKHNCKLKRLDHSQEQGLVSMLPLGVNKIEIDRGLTSSSTAVFMPFTTEELFINSSNSLYYGLNALSHNLIMADRKKLKNPNGLILGTPGSGKSFSAKREMANAILVTDDDVIICDPEGEYGNLVRQFKGEVIKVSSKSKDYLNPLDINMNYGDGDAPLKDKANFIMSMLELVVGGSGLTAEEKSVIDRCLPKIYEKYFEHPTPDNMPILQDLYDMLKGQEEKVGKKLATEMEIYVSGSLNVFNHRSNVDLNKKLLCFDIKELGSQLKKIGMLVIQDQVWNKVSQNRGNKATRYYIDEFHLLLKDEQTASYSVEIWKRFRKWGGIPTGITQNVKDLLMSKEIENIFDNTDFVLMLNQASGDREILARKLKISLPQLRYVTNSNEGEGLLFFGNTIVPFLDKFPKDTILYQKMTTKPEEVRLEHHHHHH	soluble
MGSDKIHHHHHHAQNNADDKYEILSLTDMFSLFKDSKNSVPQDYDEIYVPGYFYEPSFMYPSPLKKEFCCVAQWRIPNRNCKYLFLEDIFPQNKDSLKQASLELQKIKEKYGMRESAMYQDVPAGYNGIIAKWFTGRLFVLHCPRKLFNTVVSKKASLISIHKGRISDEKQITPDEGKFESSCFPQKGGMILIREDGCWYDDIKRNIDFLISPLINENFPTEFSKHVGREYSFLLEVVPKTGQIIPHLLLPKTLSTDEKMIVSYLEKQIRKFPENSFGPLITIDKKMLYGRYLKFIVKDEKFKIEDYLEY	not soluble
GPGSMTVRRMFCFLLPPPSHHRLSRSSLAHAHLPHIRMSAHFAQCRSTHVHTYTHTHVHTHDTLARAACRLCTSSPPVRAREMALLAPKALHKRVKGTNVEVRKEVTDDNTDAQLALLYSIHADDETELRWLHNTLRPERNLVHPSDAFLHGIKALHPAAVFNTFDVKKAKLRRLTKYEKDKETAMKRRKKEVAPTAAYKAAVNPHKTPRTGGAAPADEVRVLSRGMNKAQKARSRTRTAHKSGKVVNGAEAPKGFFTKWKKRKLEKIGRGL	soluble
MVSSSSGLPSHRGPILSALYPGNGRGGYTASRGIHTSLLFRHRNAKLAWMIPRRLQPLLEARLEKVPVVVLTGPRQAGKTTLALEVAQRREALYLDLESEADRAKLSAPELYLEAHLGRLVILDEVHRMPGLFPLLRSLVDRARRRGLRNGLYLLLGSLAPEVSRQAGESLAGRASYLELSPFDLLEVGREAEPVLWLRGGFPESFLALEDEESFRWRMDFLRSYVEREIPLLGGRLPAEVLRRFLTMLAHLQGELLNASALARNLGLDGRTVNRYLDFLVDLYLLRRLPPLEANVGKRLVKSPKLYLRDSGLVHALLGIRTLEDLLAHPVVGRSYEGFVVENLLRVLPEGGEAYFYRTRAGAEVDLVLLLPGGRFWAVEVKRSLDPRPSRGFHEALKDLKPQEAFVIYPGGETFPVGEGVFAAPLGAVMERLWRG	soluble
MEPAGPCGFCPAGEVQPARYTCPRCNAPYCSLRCYRTHGTCAENFY	soluble
MNDFLNFTQQKREEPQQLVLIKYPGIVKNVDKALQTMGGLQLISQSHFNNHSLELSHTPDNPYTSRIMAERKPQDNVSSGTLHLVMKVRRKKIDPTKIKTSFLGLVNTVYTFDVMCDFQYLPLKKRVGCDTFEDLIPKLIPTDIASALSWWDASESVATPLFLPPYQFSRYLTPSTKILGRETDHTEKTKNAQKKGYGQNLRVERKALSVTVNAKEEFPLEPSQEAVDEAMFRCKHDEPHRLLRELFDERPMWTRMGLLYRTRIDDSLLRSILQKYAFYILSGPWGRLWCKFGYDPRTDRNGGLYQTIMVSFRQHGSIPERQRLKVSSDRAQTINHTADVSEPVTYMYEPGKLPRIRQMWYCVMDVRLPQAMNELVAVVENNTPPTPEEVRDKGWLPNTLLEKIRDLIKEDVARTSAELEGLMNDTAPGEEEF	not soluble
MEVAVEKAVAAAAAASAAASGGPSAAPSGENEAESRQGPDSERGGEAARLNLLDTCAVCHQNIQSRAPKLLPCLHSFCQRCLPAPQRYLMLPAPMLGSAETPPPVPAPGSPVSGSSPFATQVGVIRCPVCSQECAERHIIDNFFVKDTTEVPSSTVEKSNQVCTSCEDNAEANGFCVECVEWLCKTCIRAHQRVKFTKDHTVRQKEEVSPEAVGVTSQRPVFCPFHKKEQLKLYCETCDKLTCRDCQLLEHKEHRYQFIEEAFQNQKVIIDTLITKLMEKTKYIKFTGNQIQNRIIEVNQNQKQVEQDIKVAIFTLMVEINKKGKALLHQLESLAKDHRMKLMQQQQEVAGLSKQLEHVMHFSKWAVSSGSSTALLYSKRLITYRLRHLLRARCDASPVTNNTIQFHCDPSFWAQNIINLGSLVIEDKESQPQMPKQNPVVEQNSQPPSGLSSNQLSKFPTQISLAQLRLQHMQQQVMAQRQQVQRRPAPVGLPNPRMQGPIQQPSISHQQPPPRLINFQNHSPKPNGPVLPPHPQQLRYPPNQNIPRQAIKPNPLQMAFLAQQAIKQWQISSGQGTPSTTNSTSSTPSSPTITSAAGYDGKAFGSPMIDLSSPVGGSYNLPSLPDIDCSSTIMLDNIVRKDTNIDHGQPRPPSNRTVQSPNSSVPSPGLAGPVTMTSVHPPIRSPSASSVGSRGSSGSSSKPAGADSTHKVPVVMLEPIRIKQENSGPPENYDFPVVIVKQESDEESRPQNANYPRSILTSLLLNSSQSSTSEETVLRSDAPDSTGDQPGLHQDNSSNGKSEWLDPSQKSPLHVGETRKEDDPNEDWCAVCQNGGELLCCEKCPKVFHLSCHVPTLTNFPSGEWICTFCRDLSKPEVEYDCDAPSHNSEKKKTEGLVKLTPIDKRKCERLLLFLYCHEMSLAFQDPVPLTVPDYYKIIKNPMDLSTIKKRLQEDYSMYSKPEDFVADFRLIFQNCAEFNEPDSEVANAGIKLENYFEELLKNLYPEKRFPKPEFRNESEDNKFSDDSDDDFVQPRKKRLKSIEERQLLK	soluble
MSIVTVQLGQCGNQIGFEVFDALFRDSHCSQGLCSKRDNEAYQASCRERFFREEENGVPVARAVLVDMEPKVINQTLSKAAQSGRWNYGQHTSFCQKQGSGNNWAYGYSVHGPKHEESIMNLIQTEVEKCDSLSGFFIIMSMAGGTGSGLGAFVTQKLQDQYSSSLKMNQIIWPYGTGEVIVQNYNSILTLSHLYRSSDALLIHENDAVHKICAKRMNIKQISFRDLNQVLAHQLGSVFQPTYSEDSSFHYRRNPLGDLMEHLVPHPEFKMLGVRNIPQMSAASLAYSAFTWAGLLKHLRQMLISSAKMEEGINWQVRPPLTGLPPIGKASAHKEHHFNTSLANLVVLRGREVHSADVEGFKDPALYTSWLEPVDAFSVWKTQRAFDKYEKSAALVSNSQLLVKPLDMIVGKAWNMFSSKAFIHQYTKFGMEEEDFLDSFALLEQVVASYGSLGP	not soluble
MSKLLVVKAHPLTKEESRSVRALETFLASYRETNPSDEIEILDVYAPETNMPEIDEELLSAWGALRAGAAFETLSENQQQKVARFNELTDQFLSADKVVIANPMWNLNVPTRLKAWVDTINVAGKTFQYTAEGPKPLTSGKKALHIQSNGGFYEGKDFASQYIKAILNFIGVDQVDGLFIEGIDHFPDRAEELLNTAMTKATEYGKTF	soluble
DVAVRTLSDVPSAAPQNLSLEVRNSKSIMIHWQPPAPATQNGQITGYKIRYRKASRKSDVTETLVSGTQLSQLIEGLDRGTEYNFRVAALTINGTGPATDWLSAETFESDLDETRVPEV	soluble
MSLGNTTVVTTTVRNATPSLTLDAGTIERFLAHSHRRRYPTRTDVFRPGDPAGTLYYVISGSVSIIAEEDDDRELVLGYFGSGEFVGEMGLFIESDTREVILRTRTQCELAEISYERLQQLFQTSLSPDAPRILYAIGVQLSKRLLDTTRKASRLAFLDVTDRIVRTLHDLSKEPEAMSHPQGTQLRVSRQELARLVGCSREMAGRVLKKLQADGLLHARGKTVVLYGTR	soluble
WLSPEIEALSHGTRLNNIDMYPALQRLLPWPEATNFEEFAPSHLSVPSGNQHRLDYSSGRPVIRVKLQECFGLEESPQLCGIPVQFHLLSPAGRPLAVTDDLRSFWSGPYSQVRAEMRGRYPKHPWPEDPWTAPATARTKNRM	not soluble
MHTDMKSVGTVSMQEAPLLEIAVVGHTNTGKTSLIRTLLRSTSFGRVDDAAGTTRHVERATIFAGSEAVLNLHDTPGIEDVYALQDKLHLIATRNKRSTQSELLEKFVAATPLNDPLEQEAKVIRQVLRSDVLLYVIDVREPVLEKYLIEIEILGKAMKPMIPIFNFTAAHRAELDLWRKKLAAFNIYASLELDTVAFAFEAEKRLYQKIQSLLEVHYTRLQRLIDHRARVWNQLCMSAARRIAGLIITTACYREHTGDERSSAGDTSSAAIRLQDFIRQAEQHCLVDLLKMFNFTDKDIELQKIPVQNGYWQLDLFAPGVLKAYGLDIGSAALKGAAAGAGIDLMTGGLSLGVASMLGALAGTGWSTFRRYGKEIQAKIRGTRWLCVDDSTLQLLYLRQRQLLDKLMNRGHAACHTDQVSQQPERGELPDGWQQIIDMLRQNPAWGRSPGLHTDDTRQYSSIEKRLIDALLKNPAL	not soluble
FADRMVIKAQSPAGFAEEYIIESIWNNRFPPGTILPAERELSELIGVTRTTLREVLQRLARDGWLTIQHGKPTKVNNFWETSGLNILETLARLDHESVPQLIDNLLSVRTNISTIFIRTAFRQHPDKAQEVLATANEVADHADAFAELDYNIFRGLAFASGNPIYGLILNGMKGLYTRIGRHYFANPEARSLALGFYHKLSALCSEGAHDQVYETVRRYGHESGEIWHRMQKNLPGDLAIQGR	soluble
EEYSKAELVVREYVASEGREFFISFEIPEYDALVGFVRLRFPKEPFIEVLRDAALIRELHVYGRAVPIGQSSDAFQHRGFGERLLKEAEEIAKEEYDRIAVISGVGVRDYYRKLGYRLRQGYMVKKL	not soluble
MGSDKIHHHHHHMAKLYFNYSTMNAGKSTVLLQASHNYRERGMQTYLMTAAIDGRAGTGRIASRIGIGAEADIFTPRDDVFAMIRDRLGAGPVACVFVDEAQFLSPEQVWQLARVVDDLDVPVLAYGLRVDFQGKLFPGSATLLALADEMREVRTICKCGRKATMVIRQDASGRAITEGAQVQIGGNETYVSLCRKHWREATGDPGAKGH	not soluble
MYSIEVRTHSALHVVKGAVVKVLGSEAKWTYSTYVKGNKGVLIVKFDRKPSDEEIREIERLANEKVKENAPIKIYELPREEAEKMFGEDMYDLFPVPEDVRILKVVVIEDWNVNACNKEHTKTTGEIGPIKIRKVRFRKSKGLLEIHFELLELENPSLEHHHHHH	soluble
MAHHHHHHMPSEYHSSLADVSPRLSSRQRCSVRAGLSSTPRHAQGRRHLDPHHFTNLTDDAKRAEGRLGRAHVASSEQQKRADAYYATKQATVAQPPGAECNLYLKSYYYTPLSKQETPSPPPRPTTGFRADAQSTSFQLAEARLRKIKREHPQYEEEVTRALQQQHGDYSIVSTEQKISRRIAVEEYADGTNARMAQIEASTKYRGTPDLGSPAPAIKRSVPYALSEECPPRADTQLSCTSHVRLYPGCGRSSFPPETPVKPRARHLYDGPVPYDTTAASGEAYPSPPAVGERCNIYAKPTLVHVDERRHRDCVEDADSLAMKRARARSGARASQERPDFIFGPGPAPQPRPPSLRHHTEARWKAQERNAENRRTGRALYPQSHRSTSLW	not soluble

Reference: the DeepSol protein solubility set
